Measurements as given in patent WO2021173674A1.

How the values were obtained:
[1] = target: HLA-A*02 complexed with EPS8L2 339-347 (…) on cells; test: cell-based or functional assay
[2] = target: HLA-A*02 complexed with MAGE-A12 112-120 (…) on cells; test: cell-based or functional assay

For “A118T TCR (MAGE-A3 112-120 clinical TCR)”, the EC50 in primary human T cell cytotoxicity on peptide-loaded MCF7 cells, against the on-target EC50 [1] was < 10 fold, the fold decrease in potency in Jurkat/T2 cell assays, against the on-target MAGE-A3 peptide [1] was 500 fold and the potency in Jurkat/T2 cell assays, against the on-target MAGE-A3 peptide [2] was 10 fold.
